Reference: patent publication US20250276018A1 (AFFYIMMUNE THERAPEUTICS, published 2025)
Where two headings read alike, the source gives them in different places. One block for each binder: values may come before it.

Key:
[1] = target: T1, AF647 labeled c-met protein (UniProt P08581 25-932, limits assumed, labeled with AlexaFluor 647 (AF647)); test: flow cytometry, EC50 relative to parental Affy6 CAR-T cells (Round 1)
T1 construct: Soluble labeled c-met protein titrated on CAR-T cells
Description: (§1) Binding of labeled c-MET to CAR-T cells expressing the affinity tuned c-MET scFvs was evaluated by transducing lentivirus anti-c-MET CAR particles into human T cells to form c-MET CAR-T cells incubated with AF647-labeled c-MET. […] Following a 48 hr. incubation at 37° C., the culture media was brought up to […] per well and incubated at 37° C. for 10 days.
(§2) Cells were stained on ice for 30 mins and then washed with PBS. After washing, residually bound protein on CAR T cells were measured on a flow cytometer (Beckman, CytoFLEX®). The resulting binding data was fit using a non-linear regression analysis on GraphPad Prism to calculate half effective dose concentration (EC₅₀) values. The results of this analysis are shown in FIGS. 2-5 and Tables 2-5 below.

[2] = target: T2, c-MET on human target cells (human, UniProt P08581 25-1390); test: cell-based or functional assay
[3] = target: T1, AF647 labeled c-met protein; test: flow cytometry, AF647-labeled c-met protein titrated on CAR-T cells (Round 1)
Description: as §1, §2

[4] = target: T1, AF647 labeled c-met protein; test: flow cytometry, EC50 relative to parental Affy6 CAR-T cells (Round 2)
Description: as §1, §2

[5] = target: T1, AF647 labeled c-met protein; test: flow cytometry, AF647-labeled c-met protein titrated on CAR-T cells (Round 2)
[6] = target: T2, c-MET on human target cells; test: cell-based or functional assay; remark: listed apart in the source
[7] = target: T2, c-MET on human target cells; test: cell-based or functional assay; remark: listed apart in the source
[8] = target: T2, c-MET on human target cells; test: cell-based or functional assay; remark: listed apart in the source
[9] = target: T2, c-MET on human target cells; test: cell-based or functional assay; remark: listed apart in the source
[10] = target: T2, c-MET on human target cells; test: cell-based or functional assay; remark: listed apart in the source
[11] = target: T2, c-MET on human target cells; test: cell-based or functional assay; remark: listed apart in the source
[12] = target: T2, c-MET on human target cells; test: cell-based or functional assay; remark: listed apart in the source
[13] = target: T2, c-MET on human target cells; test: cell-based or functional assay; remark: listed apart in the source
[14] = target: T1, AF647 labeled c-met protein; test: flow cytometry, EC50 relative to parental Affy7 CAR-T cells (Round 1)
Description: as §1, §2

[15] = target: T2, c-MET on human target cells; test: cell-based or functional assay; remark: listed apart in the source
[16] = target: T2, c-MET on human target cells; test: cell-based or functional assay; remark: listed apart in the source
[17] = target: T2, c-MET on human target cells; test: cell-based or functional assay; remark: listed apart in the source
[18] = target: T2, c-MET on human target cells; test: cell-based or functional assay; remark: listed apart in the source
[19] = target: T2, c-MET on human target cells; test: cell-based or functional assay; remark: listed apart in the source
[20] = target: T2, c-MET on human target cells; test: cell-based or functional assay; remark: listed apart in the source
[21] = target: T2, c-MET on human target cells; test: cell-based or functional assay; remark: listed apart in the source

T2 sequence (P08581 25-1390): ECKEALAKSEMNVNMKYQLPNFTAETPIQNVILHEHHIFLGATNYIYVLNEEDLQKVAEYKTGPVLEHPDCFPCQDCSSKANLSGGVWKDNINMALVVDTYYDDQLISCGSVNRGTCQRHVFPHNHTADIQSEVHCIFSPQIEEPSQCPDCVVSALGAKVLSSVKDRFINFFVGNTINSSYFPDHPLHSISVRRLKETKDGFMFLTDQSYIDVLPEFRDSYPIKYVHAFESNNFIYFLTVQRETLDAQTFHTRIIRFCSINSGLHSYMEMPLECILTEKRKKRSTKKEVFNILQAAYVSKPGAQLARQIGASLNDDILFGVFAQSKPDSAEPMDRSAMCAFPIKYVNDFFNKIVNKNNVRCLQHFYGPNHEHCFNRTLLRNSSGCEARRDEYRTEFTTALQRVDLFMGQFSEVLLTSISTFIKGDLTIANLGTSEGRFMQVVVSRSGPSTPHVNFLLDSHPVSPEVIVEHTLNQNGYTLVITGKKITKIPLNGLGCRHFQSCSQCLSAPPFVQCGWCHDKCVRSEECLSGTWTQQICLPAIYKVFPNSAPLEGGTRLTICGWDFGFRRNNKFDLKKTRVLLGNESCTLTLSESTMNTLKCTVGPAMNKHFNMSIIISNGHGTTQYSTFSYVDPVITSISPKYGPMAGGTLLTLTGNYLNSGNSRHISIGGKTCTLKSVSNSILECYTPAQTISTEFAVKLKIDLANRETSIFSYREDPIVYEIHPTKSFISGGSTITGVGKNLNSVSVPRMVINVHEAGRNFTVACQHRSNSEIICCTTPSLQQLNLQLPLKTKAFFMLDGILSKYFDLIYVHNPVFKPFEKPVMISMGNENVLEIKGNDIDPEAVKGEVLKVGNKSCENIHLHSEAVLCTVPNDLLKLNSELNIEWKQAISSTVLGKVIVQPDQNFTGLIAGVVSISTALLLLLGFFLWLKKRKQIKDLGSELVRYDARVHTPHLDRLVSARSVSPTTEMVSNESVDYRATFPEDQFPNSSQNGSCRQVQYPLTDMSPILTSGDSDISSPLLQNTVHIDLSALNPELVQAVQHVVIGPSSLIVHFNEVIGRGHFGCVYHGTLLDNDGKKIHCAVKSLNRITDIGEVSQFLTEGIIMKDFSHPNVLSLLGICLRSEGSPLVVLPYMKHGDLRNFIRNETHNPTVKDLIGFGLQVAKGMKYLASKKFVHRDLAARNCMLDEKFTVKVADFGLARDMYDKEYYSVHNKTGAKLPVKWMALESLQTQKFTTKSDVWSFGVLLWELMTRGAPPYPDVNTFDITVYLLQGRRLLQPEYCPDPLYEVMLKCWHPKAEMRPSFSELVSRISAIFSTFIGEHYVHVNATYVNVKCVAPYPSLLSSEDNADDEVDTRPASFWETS
T1 sequence (P08581 25-932 limits assumed): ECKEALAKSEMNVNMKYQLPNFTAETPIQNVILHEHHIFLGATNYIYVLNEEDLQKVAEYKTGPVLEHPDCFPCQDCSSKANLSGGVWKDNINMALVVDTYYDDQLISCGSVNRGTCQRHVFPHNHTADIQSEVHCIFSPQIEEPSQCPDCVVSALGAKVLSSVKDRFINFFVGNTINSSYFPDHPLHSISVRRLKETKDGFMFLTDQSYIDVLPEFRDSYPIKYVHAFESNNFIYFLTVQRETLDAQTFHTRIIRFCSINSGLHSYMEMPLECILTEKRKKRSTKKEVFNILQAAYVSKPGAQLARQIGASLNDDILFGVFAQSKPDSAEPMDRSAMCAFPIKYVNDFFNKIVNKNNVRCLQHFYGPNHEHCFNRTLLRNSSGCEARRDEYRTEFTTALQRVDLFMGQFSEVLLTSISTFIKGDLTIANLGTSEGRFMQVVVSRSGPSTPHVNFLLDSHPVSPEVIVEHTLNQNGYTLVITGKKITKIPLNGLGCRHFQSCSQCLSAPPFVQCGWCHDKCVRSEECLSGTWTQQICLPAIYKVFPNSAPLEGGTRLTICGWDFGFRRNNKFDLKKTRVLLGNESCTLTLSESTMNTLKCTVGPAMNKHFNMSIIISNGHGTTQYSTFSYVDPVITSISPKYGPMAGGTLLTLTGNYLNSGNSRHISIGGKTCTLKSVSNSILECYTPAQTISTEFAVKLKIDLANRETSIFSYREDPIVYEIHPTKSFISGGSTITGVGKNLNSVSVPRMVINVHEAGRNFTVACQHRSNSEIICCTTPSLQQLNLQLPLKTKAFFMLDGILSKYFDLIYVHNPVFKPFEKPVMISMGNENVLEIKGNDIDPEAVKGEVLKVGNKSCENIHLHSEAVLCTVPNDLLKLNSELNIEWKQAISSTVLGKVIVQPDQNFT

Fold Change [1]: 956 fold
EC50 [3]: 20.9 µM
B1: Affy6-I3A CAR (other)
chain: GSEQKLISEEDLGSQVQLVQSGAEVKKPGASVKVSCKASGYIFTAYTMHWVRQAPGQGLEWMGWIKPNNGLANYAQKFQGRVTMTRDTSISTAYMELSRLRSDDTAVYYCARSEATTEFDYWGQGTLVTVSSGGGGSGGGGSGGGGSDIVLTQSPDSLAVSLGERATINCKSSESVDSYANSFMHWYQQKPGQPPKLLIYRASTRESGVPDRFSGSGSRTDFTLTISSLQAEDVAVYYCQQSKEDPLTFGGGTKVEIKASTTTPAPRPPTPAPTIASQPLSLRPEACRPAAGGAVHTRGLDFACDFWVLVVVGGVLACYSLLVTVAFIIFWVRSKRSRLLHSDYMNMTPRRPGPTRKHYQPYAPPRDFAAYRSLRVKFSRSADAPAYQQGQNQLYNELNLGRREEYDVLDKRRGRDPEMGGKPRRKNPQEGLYNELQKDKMAEAYSEIGMKGERRRGKGHDGLYQGLSTATKDTYDALHMQALPPR
notes: CAR on transduced human T cells; I to A in HC CDR3; P2A remnant not included; also called MycTAffy6-I3A CAR-SSTR2
percent cytotoxicity, H1993, 24 hrs [2]: 73.1%
percent cytotoxicity, H1993, 48 hrs [2]: 95.3%
percent cytotoxicity, H1993, 72 hrs [2]: 98.9%

Fold Change [4]: 167 fold
EC50 [5]: 3.6 µM
B2: Affy6-I3W CAR (other)
chain: GSEQKLISEEDLGSQVQLVQSGAEVKKPGASVKVSCKASGYIFTAYTMHWVRQAPGQGLEWMGWIKPNNGLANYAQKFQGRVTMTRDTSISTAYMELSRLRSDDTAVYYCARSEWTTEFDYWGQGTLVTVSSGGGGSGGGGSGGGGSDIVLTQSPDSLAVSLGERATINCKSSESVDSYANSFMHWYQQKPGQPPKLLIYRASTRESGVPDRFSGSGSRTDFTLTISSLQAEDVAVYYCQQSKEDPLTFGGGTKVEIKASTTTPAPRPPTPAPTIASQPLSLRPEACRPAAGGAVHTRGLDFACDFWVLVVVGGVLACYSLLVTVAFIIFWVRSKRSRLLHSDYMNMTPRRPGPTRKHYQPYAPPRDFAAYRSLRVKFSRSADAPAYQQGQNQLYNELNLGRREEYDVLDKRRGRDPEMGGKPRRKNPQEGLYNELQKDKMAEAYSEIGMKGERRRGKGHDGLYQGLSTATKDTYDALHMQALPPR
notes: CAR on transduced human T cells; I to W in HC CDR3; P2A remnant not included; also called MycT-Affy6-I3W CAR-SSTR2
cytotoxicity, Normal Human Kidney Cells, 8 hrs [6]: 23.6
cytotoxicity, Normal Human Kidney Cells, 16 hrs [6]: 39.4
cytotoxicity, Normal Human Kidney Cells, 24 hrs [6]: 46
cytotoxicity, Normal Human Kidney Cells, 32 hrs [6]: 48.6
cytotoxicity, Normal Human Kidney Cells, 40 hrs [6]: 43.6
cytotoxicity, Normal Human Kidney Cells, 48 hrs [6]: 39.5
percent cytotoxicity, H1993, 24 hrs [2]: 74.9%
percent cytotoxicity, H1993, 48 hrs [2]: 93.5%
percent cytotoxicity, H1993, 72 hrs [2]: 98.2%
cytotoxicity, Normal Human Liver Cells, 8 hrs [7]: 15.1
cytotoxicity, Normal Human Liver Cells, 16 hrs [7]: 32.4
cytotoxicity, Normal Human Liver Cells, 24 hrs [7]: 44
cytotoxicity, Normal Human Liver Cells, 32 hrs [7]: 52.5
cytotoxicity, Normal Human Liver Cells, 40 hrs [7]: 52.4
cytotoxicity, Normal Human Liver Cells, 48 hrs [7]: 53.6
cytotoxicity, Normal Human Colon Cells, 8 hrs [8]: 18.8
cytotoxicity, Normal Human Colon Cells, 16 hrs [8]: 22.7
cytotoxicity, Normal Human Colon Cells, 24 hrs [8]: 27
cytotoxicity, Normal Human Colon Cells, 32 hrs [8]: 29.9
cytotoxicity, Normal Human Colon Cells, 40 hrs [8]: 30.9
cytotoxicity, Normal Human Colon Cells, 48 hrs [8]: 38.6
cytotoxicity, Normal Human Lung Cells, 8 hrs [9]: 14.3
cytotoxicity, Normal Human Lung Cells, 16 hrs [9]: 20.9
cytotoxicity, Normal Human Lung Cells, 24 hrs [9]: 30.6
cytotoxicity, Normal Human Lung Cells, 32 hrs [9]: 34
cytotoxicity, Normal Human Lung Cells, 40 hrs [9]: 41.2
cytotoxicity, Normal Human Lung Cells, 48 hrs [9]: 42.7

Fold Change [14]: 66 fold
EC50 [3]: 3.3 µM
B3: Affy7-Y6A CAR (other)
chain: GSEQKLISEEDLGSQVQLQQSGPELVRPGASVKMSCRASGYTFTSYWLHWVKQRPGQGLEWIGMIDPSNSDTRFNPNFKDKATLNVDRSSNTAYMLLSSLTSADSAVYYCATAGSYVSPLDYWGQGTSVTVSSGGGGSGGGGSGGGGSDIMMSQSPSSLTVSVGEKVTVSCKSSQSLLYTSSQKNYLAWYQQKPGQSPKLLIYWASTRESGVPDRFTGSGSGTDFTLTITSVKADDLAVYYCQQYYAYPWTFGGGTKLEIKRASTTTPAPRPPTPAPTIASQPLSLRPEACRPAAGGAVHTRGLDFACDFWVLVVVGGVLACYSLLVTVAFIIFWVRSKRSRLLHSDYMNMTPRRPGPTRKHYQPYAPPRDFAAYRSLRVKFSRSADAPAYQQGQNQLYNELNLGRREEYDVLDKRRGRDPEMGGKPRRKNPQEGLYNELQKDKMAEAYSEIGMKGERRRGKGHDGLYQGLSTATKDTYDALHMQALPPR
notes: CAR on transduced human T cells; Y to A in HC CDR3; P2A remnant not included; also called Affy-Y6A; MycT-Affy7-Y6A CAR-SSTR2
percent cytotoxicity, Hs746T, 24 hrs [10]: 88.3%
percent cytotoxicity, Hs746T, 48 hrs [10]: 98.4%
percent cytotoxicity, Hs746T, 72 hrs [10]: 98.8%
cytotoxicity, Normal Human Lung Cells, 8 hrs [11]: 30.6
cytotoxicity, Normal Human Lung Cells, 16 hrs [11]: 32.6
cytotoxicity, Normal Human Lung Cells, 24 hrs [11]: 40.1
cytotoxicity, Normal Human Lung Cells, 32 hrs [11]: 48.3
cytotoxicity, Normal Human Lung Cells, 40 hrs [11]: 56.5
cytotoxicity, Normal Human Lung Cells, 48 hrs [11]: 64
percent cytotoxicity, H1993, 24 hrs [12]: 85.7%
percent cytotoxicity, H1993, 48 hrs [12]: 96.9%
percent cytotoxicity, H1993, 72 hrs [12]: 99.2%
cytotoxicity, Normal Human Liver Cells, 8 hrs [13]: 14.2
cytotoxicity, Normal Human Liver Cells, 16 hrs [13]: 26.3
cytotoxicity, Normal Human Liver Cells, 24 hrs [13]: 33.1
cytotoxicity, Normal Human Liver Cells, 32 hrs [13]: 40.1
cytotoxicity, Normal Human Liver Cells, 40 hrs [13]: 55
cytotoxicity, Normal Human Liver Cells, 48 hrs [13]: 65
cytotoxicity, Normal Human Kidney Cells, 8 hrs [15]: 29.2
cytotoxicity, Normal Human Kidney Cells, 16 hrs [15]: 39.3
cytotoxicity, Normal Human Kidney Cells, 24 hrs [15]: 48.9
cytotoxicity, Normal Human Kidney Cells, 32 hrs [15]: 53.9
cytotoxicity, Normal Human Kidney Cells, 40 hrs [15]: 60.5
cytotoxicity, Normal Human Kidney Cells, 48 hrs [15]: 65.9
cytotoxicity, Normal Human Colon Cells, 8 hrs [16]: 13.1
cytotoxicity, Normal Human Colon Cells, 16 hrs [16]: 25
cytotoxicity, Normal Human Colon Cells, 24 hrs [16]: 25.6
cytotoxicity, Normal Human Colon Cells, 32 hrs [16]: 35.8
cytotoxicity, Normal Human Colon Cells, 40 hrs [16]: 45.4
cytotoxicity, Normal Human Colon Cells, 48 hrs [16]: 45.6
cytotoxicity, Normal Human Colon Cells, 8 hrs [17]: 26.5
cytotoxicity, Normal Human Colon Cells, 16 hrs [17]: 36.3
cytotoxicity, Normal Human Colon Cells, 24 hrs [17]: 42.5
cytotoxicity, Normal Human Colon Cells, 32 hrs [17]: 51.5
cytotoxicity, Normal Human Colon Cells, 40 hrs [17]: 62.7
cytotoxicity, Normal Human Colon Cells, 48 hrs [17]: 70.7
percent cytotoxicity, SNU638, 24 hrs [18]: 79.2%
percent cytotoxicity, SNU638, 48 hrs [18]: 93.5%
percent cytotoxicity, SNU638, 72 hrs [18]: 98.7%
cytotoxicity, Normal Human Kidney Cells, 8 hrs [19]: 15.8
cytotoxicity, Normal Human Kidney Cells, 16 hrs [19]: 27.1
cytotoxicity, Normal Human Kidney Cells, 24 hrs [19]: 29.4
cytotoxicity, Normal Human Kidney Cells, 32 hrs [19]: 31.1
cytotoxicity, Normal Human Kidney Cells, 40 hrs [19]: 42.6
cytotoxicity, Normal Human Kidney Cells, 48 hrs [19]: 54.7
cytotoxicity, Normal Human Liver Cells, 8 hrs [20]: 19.3
cytotoxicity, Normal Human Liver Cells, 16 hrs [20]: 29.8
cytotoxicity, Normal Human Liver Cells, 24 hrs [20]: 44.8
cytotoxicity, Normal Human Liver Cells, 32 hrs [20]: 53.9
cytotoxicity, Normal Human Liver Cells, 40 hrs [20]: 57.5
cytotoxicity, Normal Human Liver Cells, 48 hrs [20]: 58.5
cytotoxicity, Normal Human Lung Cells, 8 hrs [21]: 13.1
cytotoxicity, Normal Human Lung Cells, 16 hrs [21]: 31.3
cytotoxicity, Normal Human Lung Cells, 24 hrs [21]: 47.6
cytotoxicity, Normal Human Lung Cells, 32 hrs [21]: 50
cytotoxicity, Normal Human Lung Cells, 40 hrs [21]: 53
cytotoxicity, Normal Human Lung Cells, 47 hrs [21]: 52.1
